{"source": "patent US20230399384A1", "binders": {"B1": {"name": "CoV2-14 (antibody, V domains shown)", "VH": "EVQLQQSGPGLVKPSQTLSLTCAISGDSVSSNSAAWNWIRQSPSRGLEWLGRTYYRSKWYNDYAVSVKSRITINPDTSKNQFSLQLNSVTPEDTAVYYCAREEQQLVHDYYYYGMDVWGQGTMVTVSS", "VL": "QAVVTQPASVSGSPGQSITISCTGTSSDIGAYNYISWYQQHPGKAPKLIIYEVSNRPSGISYRFSGSKSGNTASLTISGLQAEDEANYYCSSYAGSISFGGGTKVTVL"}}, "settings_in_all_cases": "remark: other sources report otherwise", "key": {"[1]": {"biological_target": "trimeric prefusion S protein of SARS-CoV-2 (SARS-CoV-2), P0DTC2"}, "[2]": {"biological_target": "T1, sCoV2-RBD (Fc-tagged RBD of SARS-CoV-2 S protein) (SARS-CoV-2; human), P0DTC2"}, "[3]": {"biological_target": "T1, sCoV2-RBD (Fc-tagged RBD of SARS-CoV-2 …)", "remark": "listed apart in the source"}, "[4]": {"biological_target": "T1, sCoV2-RBD (Fc-tagged RBD of SARS-CoV-2 …)", "assay": "ELISA titration on coated sCoV2-RBD"}, "[5]": {"biological_target": "T1, sCoV2-RBD (Fc-tagged RBD of SARS-CoV-2 …)", "assay": "BLI (Octet) blocking of ACE2 binding to captured sCoV2-RBD"}}, "note": "Where two headings read alike, the source gives them in different places.", "data": [{"binder": "B1", "values": [{"measurement": "Kd", "setting": "[1]", "value": 0.22, "unit": "nM"}, {"measurement": "EC50 (read off the curve)", "setting": "[2]", "value": 0.5, "unit": "nM"}, {"measurement": "EC50", "setting": "[3]", "value": 0.58, "unit": "nM"}, {"measurement": "EC50", "setting": "[4]", "value": 0.58, "unit": "nM"}, {"measurement": "IC50", "setting": "[5]", "value": 3.14, "unit": "µg/mL"}]}]}
